Laboratory results: IntAct's records for PubMed 24056087

B1: ADP-ribosylation factor 6 (Homo sapiens), P62330 (parent)
chain: MGKVLSKIFGNKEMRILMLGLDAAGKTTILYKLKLGQSVTTIPTVGFNVETVTYKNVKFNVWDVGGQDKIRPLWRHYYTGTQGLIFVVDCADRDRIDEARQELHRIINDREMRDAIILIFANKQDLPDAMKPHEIQEKLGLTRIRDRNWYVQPSCATSGDGLYEGLTWLTSNYKS
partner: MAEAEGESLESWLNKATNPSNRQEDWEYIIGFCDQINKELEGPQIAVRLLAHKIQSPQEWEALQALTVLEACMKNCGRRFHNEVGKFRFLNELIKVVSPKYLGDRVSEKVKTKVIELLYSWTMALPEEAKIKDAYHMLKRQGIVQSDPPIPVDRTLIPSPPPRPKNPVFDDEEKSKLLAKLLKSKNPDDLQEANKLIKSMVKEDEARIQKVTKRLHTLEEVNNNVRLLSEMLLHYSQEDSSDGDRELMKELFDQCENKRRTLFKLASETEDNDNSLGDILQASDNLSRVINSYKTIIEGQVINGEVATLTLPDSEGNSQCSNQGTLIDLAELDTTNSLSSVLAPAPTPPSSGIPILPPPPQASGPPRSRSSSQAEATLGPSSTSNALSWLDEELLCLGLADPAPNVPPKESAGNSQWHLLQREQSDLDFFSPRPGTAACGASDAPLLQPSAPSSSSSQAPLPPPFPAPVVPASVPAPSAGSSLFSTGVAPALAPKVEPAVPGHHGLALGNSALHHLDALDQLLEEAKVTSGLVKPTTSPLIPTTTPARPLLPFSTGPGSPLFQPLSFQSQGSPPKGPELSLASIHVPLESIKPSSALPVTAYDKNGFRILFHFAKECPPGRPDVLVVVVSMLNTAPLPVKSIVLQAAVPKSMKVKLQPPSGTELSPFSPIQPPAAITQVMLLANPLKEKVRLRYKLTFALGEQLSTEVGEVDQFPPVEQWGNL
B2: ADP-ribosylation factor 6 (Homo sapiens), P62330 (parent)
chain: B1 chain
partner: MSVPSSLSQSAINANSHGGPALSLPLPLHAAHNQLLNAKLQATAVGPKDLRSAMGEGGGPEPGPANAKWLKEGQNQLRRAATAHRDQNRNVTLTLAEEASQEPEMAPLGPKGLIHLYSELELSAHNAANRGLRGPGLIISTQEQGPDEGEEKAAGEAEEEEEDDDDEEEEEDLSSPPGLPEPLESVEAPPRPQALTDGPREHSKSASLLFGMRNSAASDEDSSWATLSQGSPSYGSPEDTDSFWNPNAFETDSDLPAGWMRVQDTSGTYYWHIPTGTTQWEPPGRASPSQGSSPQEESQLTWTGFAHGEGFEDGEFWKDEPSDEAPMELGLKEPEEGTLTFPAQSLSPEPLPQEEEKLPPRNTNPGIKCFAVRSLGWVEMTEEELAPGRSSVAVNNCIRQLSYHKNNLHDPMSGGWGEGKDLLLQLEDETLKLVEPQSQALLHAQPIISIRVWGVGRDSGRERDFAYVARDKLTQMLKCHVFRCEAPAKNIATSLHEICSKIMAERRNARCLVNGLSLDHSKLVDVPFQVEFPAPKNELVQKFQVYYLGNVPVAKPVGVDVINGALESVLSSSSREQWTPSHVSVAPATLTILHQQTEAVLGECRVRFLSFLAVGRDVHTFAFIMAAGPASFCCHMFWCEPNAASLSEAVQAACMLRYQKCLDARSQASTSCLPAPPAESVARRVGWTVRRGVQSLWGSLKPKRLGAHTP

Variants of: B1
Settings: with gga3_human GGA3, Q9NZ52

**Q.** How did the “effect of a mutation on the interaction” value turn out when Q67L was run?
**A.** The value was “increasing interaction strength”.

**Q.** Which “effect of a mutation on the interaction” value does the source give for T27N here?
**A.** Its value is “decreasing interaction strength”.

Variants of: B2
Settings: with apbb1_human APBB1, O00213

**Q.** With T27N as the variant, how does the “effect of a mutation on the interaction” value read?
**A.** The value was “increasing interaction strength”.

**Q.** Q67L was tested. Which “effect of a mutation on the interaction” value did it give?
**A.** Its value is “disrupting interaction strength”.
